Experimental data taken from PMC6208296, “Redox regulation of pyruvate kinase M2 by cysteine oxidation and S-nitrosation” (Biochemical Journal, 2018).

Legend:
[1] = target: the molecule itself; test: crystal structure; hanging drop vapour diffusion, 10 mg/ml protein with 5 mM of each ligand, PEG 3350, sodium cacodylate pH 6, 50 mM MgCl2, 100 mM KCl; 18°C (C424A, with F-1,6-BP, oxalate and ATP) or 4°C (C358S)
[2] = target: the molecule itself; test: SEC; analytical gel filtration, Superdex 200 PC 3.2/30 in PBS-CM, room temperature; 0.1 mg/ml incubated 12 h (equilibrium) without or with 1 mM DTT or 20 μM H2O2; tetramer to monomers, peak areas on a bimodal distribution
[3] = target: the molecule itself; test: cell-based or functional assay

B1: M2PYK C424A (enzyme)
chain: not shown
notes: pyruvate kinase, M2 isoform (M2PYK), human, point mutant made on pET28a-M2PYK; Made by QuikChange on pET28a-M2PYK; no step that removes the His tag is described; source: E. coli BL21, purified (cobalt IMAC, Superdex 200 gel filtration)
binding result [1]: binds

B2: M2PYK C358S (enzyme)
chain: not shown
notes: pyruvate kinase, M2 isoform (M2PYK), human, point mutant made on pET28a-M2PYK; Made by QuikChange on pET28a-M2PYK; no step that removes the His tag is described; also called Cys358Ser; MPYK C358S; source: E. coli BL21, purified (cobalt IMAC, Superdex 200 gel filtration)
stoichiometry N [2]: 4

B3: M2PYK C326S (enzyme)
chain: not shown
enzymatic activity, LDH-coupled assay, without F-1,6-BP, relative to M2PYK WT [3]: ~20 % of WT activity
